From publication PMC10397247 come the findings set out here.

Read-outs that look alike come from different tables or passages of the source.

In test [1] the target is T1, APC9096-AA.
T1 chain: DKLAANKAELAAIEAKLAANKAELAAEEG
In words: two-hybrid library CCmax.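 Also: natural log of median RNA to DNA barcode read ratio; higher means stronger binding.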 The note with it: mean of both orientations.

For test [2], the target named is T2, APC5383-AA.
T2 chain: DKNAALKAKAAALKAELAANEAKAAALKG
The test can be described thus: two-hybrid library CCmax.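 Also: natural log of median RNA to DNA barcode read ratio; higher means stronger binding.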 Particulars: mean of both orientations.

Test [3] deals with T3, APC4436-AA.
T3 chain: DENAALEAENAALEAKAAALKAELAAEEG
In words: two-hybrid library CCmax.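 Also: natural log of median RNA to DNA barcode read ratio; higher means stronger binding.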

Test [4] concerns the target T4, APC8191-AA.
T4 chain: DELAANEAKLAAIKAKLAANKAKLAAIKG
The test can be described thus: two-hybrid library CCmax.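 Also: natural log of median RNA to DNA barcode read ratio; higher means stronger binding.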 The note with it: mean of both orientations.

In test [5] the target is T5, APC8910-AA.
T5 chain: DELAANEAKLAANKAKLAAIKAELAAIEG
The test can be described thus: two-hybrid library CCmax.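 Also: natural log of median RNA to DNA barcode read ratio; higher means stronger binding.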 Particulars: mean of both orientations.

Test [6] addresses T6, APC9319-AA.
T6 chain: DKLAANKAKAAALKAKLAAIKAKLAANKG
The test can be described thus: two-hybrid library CCmax.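 Also: natural log of median RNA to DNA barcode read ratio; higher means stronger binding.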 Particulars: mean of both orientations.

Test [7] addresses T7, APC7099-AA.
T7 chain: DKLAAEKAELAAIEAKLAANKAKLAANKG
The test can be described thus: two-hybrid library CCmax. Particulars: mean of both orientations.

The target of test [8] is T8, APC6108-AA.
T8 chain: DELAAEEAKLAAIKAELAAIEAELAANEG
The test can be described thus: two-hybrid library CCmax. Particulars: mean of both orientations.

Test [9] concerns the target T9, 4H380-AA.
T9 chain: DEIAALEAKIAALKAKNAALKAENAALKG
In words: two-hybrid library CCmax. Particulars: mean of both orientations.

Test [10] concerns the target T10, 4H446-AA.
T10 chain: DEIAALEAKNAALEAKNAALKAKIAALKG
In words: two-hybrid library CCmax. Particulars: mean of both orientations.

Test [11] has as its target T11, 4H341-AA.
T11 chain: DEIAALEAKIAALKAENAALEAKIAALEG
The test can be described thus: two-hybrid library CCmax. Particulars: mean of both orientations.

The target of test [12] is T12, 4H3414-AA.
T12 chain: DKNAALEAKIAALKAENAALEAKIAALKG
The test can be described thus: two-hybrid library CCmax. Particulars: mean of both orientations.

The target in test [13] is T13, 4H483-AA.
T13 chain: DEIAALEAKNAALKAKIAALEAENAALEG
In words: two-hybrid library CCmax. The note with it: mean of both orientations.

Test [14] has as its target T14, 4H3969-AA.
T14 chain: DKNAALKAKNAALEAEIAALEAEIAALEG
The test can be described thus: two-hybrid library CCmax. The note with it: mean of both orientations.

The target of test [15] is T15, 4H464-AA.
T15 chain: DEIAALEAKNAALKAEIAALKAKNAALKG
In words: two-hybrid library CCmax. The note with it: mean of both orientations.

Test [16] deals with T16, 4H3595-AA.
T16 chain: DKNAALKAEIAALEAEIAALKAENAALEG
The test can be described thus: two-hybrid library CCmax.

The target in test [17] is T17, 4H3939-AA.
T17 chain: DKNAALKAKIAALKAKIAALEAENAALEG
In words: two-hybrid library CCmax. The note with it: mean of both orientations.

Test [18] addresses T18, 4H3129-AA.
T18 chain: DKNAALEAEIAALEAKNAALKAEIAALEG
In words: two-hybrid library CCmax.

For test [19], the target named is T19, 4H3782-AA.
T19 chain: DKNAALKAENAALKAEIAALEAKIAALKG
The test can be described thus: two-hybrid library CCmax. Particulars: mean of both orientations.

The target of test [20] is T20, 4H3629-AA.
T20 chain: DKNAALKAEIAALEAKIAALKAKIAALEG
The test can be described thus: two-hybrid library CCmax.

The target of test [21] is T21, 4H63-AA.
T21 chain: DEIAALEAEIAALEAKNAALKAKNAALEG
In words: two-hybrid library CCmax.

The target of test [22] is T22, P9.
T22 chain: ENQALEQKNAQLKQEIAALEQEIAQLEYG
In words: two-hybrid library CC1. Particulars: mean of both orientations.

In test [23] the target is T23, P8mS.
T23 chain: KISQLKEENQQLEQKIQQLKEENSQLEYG
In words: two-hybrid library CC1.

Test [24] concerns the target T24, 4H432-AA.
T24 chain: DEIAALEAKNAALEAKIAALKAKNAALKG
The test can be described thus: two-hybrid library CCmax. Particulars: mean of both orientations.

Test [25] addresses T25, 4H3974-AA.
T25 chain: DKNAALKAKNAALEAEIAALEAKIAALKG
The test can be described thus: two-hybrid library CCmax. Particulars: mean of both orientations.

The target of test [26] is T26, 4H3094-AA.
T26 chain: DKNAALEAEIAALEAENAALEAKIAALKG
The test can be described thus: two-hybrid library CCmax. Particulars: mean of both orientations.

In test [27] the target is T27, 4H324-AA.
T27 chain: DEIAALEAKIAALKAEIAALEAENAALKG
The test can be described thus: two-hybrid library CCmax. Particulars: mean of both orientations.

In test [28] the target is T28, 4H3049-AA.
T28 chain: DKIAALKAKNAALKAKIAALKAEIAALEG
The test can be described thus: two-hybrid library CCmax. The note with it: mean of both orientations.

Test [29] deals with T29, 4H3619-AA.
T29 chain: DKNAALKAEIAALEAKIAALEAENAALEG
The test can be described thus: two-hybrid library CCmax. The note with it: mean of both orientations.

Test [30] deals with T30, 4H3449-AA.
T30 chain: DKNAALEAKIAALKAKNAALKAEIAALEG
The test can be described thus: two-hybrid library CCmax. The note with it: mean of both orientations.

Test [31] deals with T31, 4H3915-AA.
T31 chain: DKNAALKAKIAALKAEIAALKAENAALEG
In words: two-hybrid library CCmax. The note with it: mean of both orientations.

Test [32] has as its target T32, 4H2961-AA.
T32 chain: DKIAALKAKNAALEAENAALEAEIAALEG
The test can be described thus: two-hybrid library CCmax.

The target in test [33] is T33, 4H3777-AA.
T33 chain: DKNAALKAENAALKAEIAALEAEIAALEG
The test can be described thus: two-hybrid library CCmax. The note with it: mean of both orientations.

For DENAALEAENAALEAKAAALKAELAAEEG [APC4436-AA], the interaction score in test [1] is -1.96; in [2] it was -1.76; in [3] it was -2.09; in test [4] it was -2.27; in test [5], -1.76; in test [6], -1.7. The interaction score in test [7] was -1.57; in test [8], -2.03.

Consider DKNAALEAEIAALEAKNAALKAEIAALEG [4H3129-AA], for which the interaction score is -1.83 in test [9]; -2.05 in test [10]; 2.19 in [11]; 2.24 in test [12]; -2.19 in test [13]; -1.84 in test [14]. For the same molecule, the interaction score in test [15] is -1.78; in test [16] (mean of both orientations) it was -1.39; in test [17], -1.82; in test [18], -1.5; in test [19], -1.55; in test [20] (mean of both orientations) it was -0.839. Further, in test [21] (mean of both orientations), the interaction score is -2.14.

Take KISQLKEENQQLEQKIQQLKEENSQLEYG [P8mS]: the interaction score is -2.35 in test [22] and -3.02 in [23].

Consider DKIAALKAKNAALEAENAALEAEIAALEG [4H2961-AA], for which the interaction score in [9] is -1.56; in test [24] it was -0.0165; in [10], 1.97; in [11] it was -0.961; in test [12], -1.46; in test [25], -1.82. Further, the interaction score is -1.35 in test [13]; -1.8 in test [14]; -1.08 in test [26]; -0.618 in test [15]; -1.69 in [27]; 1.02 in test [28]. Besides, the interaction score in [16] is -1.7; in [17], -1.84; in [18] (mean of both orientations), -1.5; in [19], -1.44; in test [29], -1.98; in test [30] it was -1.67. Besides, the interaction score in test [20] was -1.26; in test [31], -1.91; in [32], -1.84; in [21], -1.2; in test [33], -1.97.
